Experimental findings from PMC12583656, “Conserved interfaces mediate multiple protein–protein interactions in a prokaryotic metabolon” (Molecular Systems Biology, 2025) are described below.

Residue numbers refer to the chain shown, from its start. Numbers in names are those of the source.

As a reminder, the Kd is the concentration at which binding is half-saturated. A low value points to higher affinity.

Assay [1] has as its target adenylate kinase (Adk), split-YFP fusion (E. coli) (UniProt P69441). The assay is described as follows: split reporter (BiFC, NanoBiT); split monomeric EYFP (155/156) in living E. coli BW27783; NYFP fusion IPTG-induced, CYFP fusion arabinose-induced (0.2% arabinose, 1 mM IPTG), 30 °C 4-5 h; mean fluorescence intensity (MFI) of 30,000 cells by flow cytometry; both configurations measured, the higher value used; inducers also titrated for three pairs. A general note: In flow cytometry, cells or beads pass a laser one at a time.

The next assay deals with T1, FolK, purified protein (E. coli, UniProt P26281 1-159).
T1 construct: FolK of E. coli (encoded by the gene folK); Expression and purification are not described
T1 sequence: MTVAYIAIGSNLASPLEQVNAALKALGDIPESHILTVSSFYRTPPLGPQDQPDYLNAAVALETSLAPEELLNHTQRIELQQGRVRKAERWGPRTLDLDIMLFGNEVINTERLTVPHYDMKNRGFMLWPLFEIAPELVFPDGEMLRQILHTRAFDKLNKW
The assay is described as follows: Raman spectroscopy; titration: DHFR 7.5-50 µM, FolK fixed at 15 µM; area of the interaction-specific peak at ~1663 cm^-1 against DHFR concentration, hyperbolic fit. The conditions noted are these: both partners purified.

Sequence of adenylate kinase (Adk), split-YFP fusion (E. coli) (P69441 whole entry, the tested form may be a part): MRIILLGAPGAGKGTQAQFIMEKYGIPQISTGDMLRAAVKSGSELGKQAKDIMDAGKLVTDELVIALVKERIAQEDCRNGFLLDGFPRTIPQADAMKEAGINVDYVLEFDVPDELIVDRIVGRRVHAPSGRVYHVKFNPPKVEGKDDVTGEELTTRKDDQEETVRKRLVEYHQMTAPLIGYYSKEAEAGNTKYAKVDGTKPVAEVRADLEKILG

In assay [1], “dihydrofolate reductase (DHFR, FolA), split-YFP fusion (from UniProt P0ABQ4 1-159) (enzyme)” had an MFI (mean YFP fluorescence intensity) of 641.

B1: DHFR, wild type, purified protein (enzyme, E. coli)
chain: MISLIAALAVDRVIGMENAMPWNLPADLAWFKRNTLNKPVIMGRHTWESIGRPLPGRKNIILSSQPGTDDRVTWVKSVDEAIAACGDVPEIMVIGGGRVYEQFLPKAQKLYLTHIDAEVEGDTHFPDYEPDDWESVFSEFHDADAQNSHSYCFEILERR
notes: dihydrofolate reductase (DHFR, FolA) of E. coli; Expression and purification are not described; also called WT DHFR; WT-DHFR
With B1, the Kd with FolK, purified protein stood at 22 µM. This counts as double-digit micromolar.

B2: D144N DHFR, purified protein (enzyme, E. coli)
chain: B1 chain with D144N
notes: dihydrofolate reductase (DHFR) of E. coli with one substitution; as m28; Expression and purification are not described; also called D144N mutant of DHFR
For the molecule B2, the affinity with FolK, purified protein, expressed as Kd, was 10 µM.

B3: N23V DHFR, purified protein (enzyme, E. coli)
chain: B1 chain with N23V
notes: dihydrofolate reductase (DHFR) of E. coli with one substitution; as m28; Expression and purification are not described; also called N23V mutant of DHFR
With B3, the dissociation constant Kd with FolK, purified protein was 5.1 µM.

B4: D132H DHFR, purified protein (enzyme, E. coli)
chain: B1 chain with D132H
notes: dihydrofolate reductase (DHFR) of E. coli with one substitution; as m28; Expression and purification are not described; also called D132H mutant of DHFR
In the case of B4, in the assay with FolK, purified protein, the dissociation constant Kd amounted to 8.1 µM.
